B1: Ankyrin repeat domain-containing protein 16 (Mus musculus), A2AS55-1 (parent)
chain: MALPGDPRRLCRLVQEGRLRDLQEELAVARGCRGPAGDTLLHCAARHGRQDILAYLVEAWSMDIEATNRDYKRPLHEAASMGHRDCVRYLLGRGAVVDSLKKADWTPLMMACTRKNLDVIQDLVEHGANPLLKNKDGWNSFHIASREGHPVILRYLLTVCPDAWKTESNIRRTPLHTAAMHGCLEAVQVLLERCHYEPDCRDNCGVTPFMDAIQCGHVSIAKLLLEQHKACSSAADSMGAQALHRAAVTGQDEAIRFLVCGLGIDVDVRAKSSQLTALHYAAKEGQTNTVQTLLSLGADINSTDERNRSVLHLACAGQHVACTRLLLQSGLKDSEDLTGTLAQQLTRSVDILQDFDHDVKS
B2: Alanine--tRNA ligase, cytoplasmic (Mus musculus), Q8BGQ7 (parent)
chain: MDATLTAREIRERFINFFRRNEHTYVHSSATIPLDDPTLLFANAGMNQFKPIFLNTIDPSHPMAKLSRAANTQKCIRAGGKHNDLDDVGKDVYHHTFFEMLGSWSFGDYFKELACKMALELLTQEFGIPVERLYVTYFGGDEAAGLEPDLECRQIWQNLGLDEARILPGNMKDNFWEMGDTGPCGPCSEIHYDRIGGRDAAHLVNQDDPNVLEIWNLVFIQYNRESDGVLKPLPKKSIDTGMGLERLVSVLQNKMSNYDTDLFMPYFEAIQKGTGARPYTGKVGAEDADGIDMAYRVLADHARTITVALADGGRPDNTGRGYVLRRILRRAVRYSHEKLNASRGFFATLVDVVVQSLGDAFPELKKDPEMVKDIINEEEVQFLKTLSRGRRILDRKIQSLGDCKTIPGDTAWLLYDTYGFPVDLTGLIAEEKGLVVDMNGFEEERRLAQLKSQGKGAGDEDLIMLDIYAIEELRAKGLEATDDSPKYNYQSDSSGSYVFECTVATVLALRREKMFVDEVVTGQECGVVLDKTCFYAEQGGQIYDEGYLVKVDDSSEDKTEFTVKNAQVRGGYVLHIGTIYGNLKVGDQVRLFIDEPRRRPVMSNHTATHILNFALRSVLGEADQKGSLVAPDRLRFDFTAKGAMSTQQIKKAEEIVNGMIEAAKPVYTQDCPLAAAKAIQGLRAVFDETYPDPVRVVSIGVPVSELLDDPCGPAGSLTSVEFCGGTHLRNSSHAGAFVIVTEEAIAKGIRRIVAVTGAEAQKALRKSETLKKSLSAMEAKVKAQTAPNKDVQREIADLGEALATAVIPQWQKDEQRETLKSLKKVMDDLDRASKADVQKRVLEKTKQLIDSNPNQPLVILEMESGASAKALNEALKLFKTHSPQTSAMLFTVDNEAGKITCLCQVPQNAANRGLKASEWVQQVSGLMDGKGGGKDMSAQATGKNVGCLQEALQLATSFAQLRLGDVKN

Variants of: B1
Details: with syac_mouse Aars1, Q8BGQ7

effect of a mutation on the interaction	Variant
disrupting interaction strength	K102R;K135R;K165R

Variants of: B2
Details: with Ankrd16, A2AS55-1

effect of a mutation on the interaction	Variant
with no effect	A734E

From IntAct's records for PubMed 29769718
